In patent publication US20140066321A1 (PANGU BIOPHARMA, published 2014):

Tests used:
[1] = target: the molecule itself; test: X-ray crystal structure at 2.4 Å (self-association, homodimer)
Method: To set up a […], 1 μl of protein sample was mixed with 1 μl of crystallization solution with 0.2 M ammonium citrate. […] Before diffraction experiments, crystals were soaked in crystallization solution containing […] for cryoprotection. […] Specifically, crystals were soaked in crystallization solution containing 10-20% glycerol for 5-10 mins. The diffraction data were collected at the Shanghai Synchrotron Radiation Facility and were processed and scaled using HKL2000.
The phase was improved by density modifications with RESOLVE. The initial model was built in COOT. […] The models were refined in Refmac5 and PHENIX. […] All structure figures were prepared by PyMOL

[2] = target: the molecule itself; test: size exclusion chromatography (self-association, homodimer)
Method: The cDNA encoding native human cytoplasmic HRS and the splice variant HRSΔCD were cloned into a modified pET32 vector and fused to the N-terminal thioredoxin-His₆-tags. The fusion proteins were expressed in E. coli BL21(DE3) and first purified by Ni²⁺-NTA affinity chromatography Next, the thioredoxin-His₆-tag was removed by protease-3C digestion. The cleaved protein mixtures were further separated by a size-exclusion chromatography in a buffer containing 50 mM Tris (pH 7.5), 100 mM NaCl, 1 mM EDTA and 1 mM […] Native HRS and HRSΔCD mutants were created using the standard PCR-based mutagenesis method. The mutant proteins were purified using a protocol identical to that used for native HRS and HRSΔCD. Analytical gel filtration chromatography was carried out on an AKTA FPLC system (GE Healthcare). Proteins were loaded onto a Superose 12 10/300 GL column (GE Healthcare) equilibrated with a buffer containing 50 mM Tris (pH 7.5), 100 mM NaCl, […] EDTA and 1 mM […].

Row | Protein | binding result [1] | binding result [2]
1 | human HRS variant with deletion of residues 1-53 and residues 507-509 (HRS Δ1-53-Δ507-509) (enzyme, the row under measurements tells of its self-association into a dimer in the crystal structure) FVLKTPKGTRDYSPRQMAVREKVFDVIIRCFKRHGAEVIDTPVFELKETLMGKYGEDSKLIYDLKDQGGELLSLRYDLTVPFARYLAMNKLTNIKRYHIAKVYRRDNPAMTRGRYREFYQCDFDIAGNFDPMIPDAECLKIMCEILSSLQIGDFLVKVNDRRILDGMFAICGVSDSKFRTICSSVDKLDKVSWEEVKNEMVGEKGLAPEVADRIGDYVQQHGGVSLVEQLLQDPKLSQNKQALEGLGDLKLLFEYLTLFGIDDKISFDLSLARGLDYYTGVIYEAVLLQTPAQAGEEPLGVGSVAAGGRYDGLVGMFDPKGRKVPCVGLSIGVERIFSIVEQRLEALEEKIRTTETQVLVASAQKKLLEERLKLVSELWDAGIKAELLYKKNPKLLNQLQYCEEAGIPLVAIIGEQELKDGVIKLRSVTSREEVDVRREDLVEEIKRRTGQPL | binds | 
2 | human HRS variant with deletion of residues 507-509 (HRS Δ507-509) (enzyme, the row under measurements tells of its self-association into a dimer (size exclusion chromatography)) MAERAALEELVKLQGERVRGLKQQKASAELIEEEVAKLLKLKAQLGPDESKQKFVLKTPKGTRDYSPRQMAVREKVFDVIIRCFKRHGAEVIDTPVFELKETLMGKYGEDSKLIYDLKDQGGELLSLRYDLTVPFARYLAMNKLTNIKRYHIAKVYRRDNPAMTRGRYREFYQCDFDIAGNFDPMIPDAECLKIMCEILSSLQIGDFLVKVNDRRILDGMFAICGVSDSKFRTICSSVDKLDKVSWEEVKNEMVGEKGLAPEVADRIGDYVQQHGGVSLVEQLLQDPKLSQNKQALEGLGDLKLLFEYLTLFGIDDKISFDLSLARGLDYYTGVIYEAVLLQTPAQAGEEPLGVGSVAAGGRYDGLVGMFDPKGRKVPCVGLSIGVERIFSIVEQRLEALEEKIRTTETQVLVASAQKKLLEERLKLVSELWDAGIKAELLYKKNPKLLNQLQYCEEAGIPLVAIIGEQELKDGVIKLRSVTSREEVDVRREDLVEEIKRRTGQPL |  | binds
